# Test results taken from publication PMC2788937 (Science signaling, 2009).
# No end group written: not given here.
# Tests used:
# GST-β2AR(330–413) = GST-β2AR(330–413) (human, UniProt P07550 330-413); assay: pull-down
# [1] = target: FLAG-tagged human β2-adrenergic receptor (human, UniProt P07550 1-413); assay: pull-down
Binder,binding result (GST-β2AR(330–413)),binding result [1]
"EAISFLLSLIDRLVLY (also: FITC label, position not given here) [FITC-labeled peptide derived from human EGLN3(89–104)]",binds,
"LRGDQITWIGGNEEGCEAISFLLSLIDRLVLYCGSRLGKYYVKE (domain or fragment, human, UniProt Q9H6Z9 73-116, looked up) [GST-EGLN3^(73-116)]",,binds
